Laboratory results taken from publication PMC9482650, “Quantitative fragmentomics allow affinity mapping of interactomes” (Nature Communications, 2022).

T1: ARHGEF11, O15085
T1 sequence (O15085 42-136, limits assumed, looked up): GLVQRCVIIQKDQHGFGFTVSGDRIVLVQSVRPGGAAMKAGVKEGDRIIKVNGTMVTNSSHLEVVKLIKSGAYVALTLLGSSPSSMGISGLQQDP

T2: DFNB31_3, Q9P202
T2 sequence (Q9P202 811-907, limits assumed, looked up): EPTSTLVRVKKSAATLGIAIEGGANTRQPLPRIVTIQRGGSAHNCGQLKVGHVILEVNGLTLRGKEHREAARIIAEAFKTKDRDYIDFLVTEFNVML

T3: FRMPD1, Q5SYB0
T3 sequence (Q5SYB0 52-145, limits assumed, looked up): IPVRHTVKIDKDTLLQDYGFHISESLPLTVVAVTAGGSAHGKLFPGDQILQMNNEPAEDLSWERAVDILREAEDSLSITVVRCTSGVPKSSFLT

T4: GRIP1_7, Q9Y3R0
T4 sequence (Q9Y3R0 999-1096, limits assumed, looked up): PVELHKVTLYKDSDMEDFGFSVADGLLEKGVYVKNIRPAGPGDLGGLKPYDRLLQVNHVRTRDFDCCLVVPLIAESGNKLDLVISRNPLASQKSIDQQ

T5: HTRA3, P83110
T5 sequence (P83110 354-453, limits assumed, looked up): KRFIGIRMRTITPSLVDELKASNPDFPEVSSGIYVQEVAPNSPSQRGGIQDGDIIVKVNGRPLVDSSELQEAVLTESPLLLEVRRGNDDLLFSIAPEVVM

T6: LIN7A, O14910
T6 sequence (O14910 103-200, limits assumed, looked up): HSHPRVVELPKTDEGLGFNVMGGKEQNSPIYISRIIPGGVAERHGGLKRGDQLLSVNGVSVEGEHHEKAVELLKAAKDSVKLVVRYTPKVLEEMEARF

T7: MPDZ_5, O75970
T7 sequence (O75970 695-796, limits assumed, looked up): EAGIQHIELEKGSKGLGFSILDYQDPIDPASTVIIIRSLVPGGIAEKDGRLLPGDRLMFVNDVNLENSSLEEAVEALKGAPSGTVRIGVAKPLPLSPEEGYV

T8: MPP2, Q14168
T8 sequence (Q14168 180-250, limits assumed, looked up): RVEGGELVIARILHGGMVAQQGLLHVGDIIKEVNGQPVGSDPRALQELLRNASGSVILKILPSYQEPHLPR

T9: NHERF3_3, Q5T2W1
T9 sequence (Q5T2W1 238-333, limits assumed, looked up): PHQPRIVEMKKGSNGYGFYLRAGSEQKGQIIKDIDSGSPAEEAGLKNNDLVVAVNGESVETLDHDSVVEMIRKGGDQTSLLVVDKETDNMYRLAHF

T10: PCLO, Q9Y6V0
T10 sequence (Q9Y6V0 4491-4600, limits assumed, looked up): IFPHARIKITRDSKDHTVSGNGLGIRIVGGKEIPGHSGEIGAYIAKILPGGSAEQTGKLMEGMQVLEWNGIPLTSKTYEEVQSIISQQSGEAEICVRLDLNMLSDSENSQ

T11: PDZD7_3, Q9H5P4
T11 sequence (Q9H5P4 857-944, limits assumed, looked up): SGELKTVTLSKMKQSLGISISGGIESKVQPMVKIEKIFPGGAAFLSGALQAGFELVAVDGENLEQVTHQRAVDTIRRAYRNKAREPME

T12: TIAM2, Q8IVF5
T12 sequence (Q8IVF5 885-986, limits assumed, looked up): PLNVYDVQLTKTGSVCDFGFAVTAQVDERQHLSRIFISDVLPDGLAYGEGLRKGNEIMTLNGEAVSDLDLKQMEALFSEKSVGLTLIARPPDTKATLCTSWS

T13: TJP3_3, O95049
T13 sequence (O95049 375-456, limits assumed, looked up): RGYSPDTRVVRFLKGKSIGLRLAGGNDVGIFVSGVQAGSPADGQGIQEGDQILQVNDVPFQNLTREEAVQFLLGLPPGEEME


target: T1, ARHGEF11, O15085; assay: holdup assay; design: key: below the threshold = too weak to quantify, mostly under pKd 3.1 to 4; conditions: plain residues with an end cap or a label only (N-terminal biotin on a linker: ttds)

pKd | Binder
3.87 | QSARYRDTEL [TJP2, Q9UDY2]
below the threshold | VLRLQSETSV [VANGL1, Q8TAA9]

target: T2, DFNB31_3, Q9P202; assay: holdup assay; design: key: below the threshold = too weak to quantify, mostly under pKd 3.1 to 4; conditions: plain residues with an end cap or a label only (N-terminal biotin on a linker: ttds)

pKd | Binder
below the threshold | QSARYRDTEL [TJP2, Q9UDY2]
below the threshold | VLRLQSETSV [VANGL1, Q8TAA9]

target: DLG1_3, Q12959; assay: holdup assay; design: key: below the threshold = too weak to quantify, mostly under pKd 3.1 to 4; conditions: plain residues with an end cap or a label only (N-terminal biotin on a linker: ttds)
Sequence (Q12959 457-571): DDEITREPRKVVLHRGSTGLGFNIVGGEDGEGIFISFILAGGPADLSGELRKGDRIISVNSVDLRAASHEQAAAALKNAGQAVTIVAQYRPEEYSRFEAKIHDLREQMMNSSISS

pKd | Binder
3.83 | QSARYRDTEL [TJP2, Q9UDY2]
4.63 | VLRLQSETSV [VANGL1, Q8TAA9]

target: DLG2_2, Q15700; assay: holdup assay; design: key: below the threshold = too weak to quantify, mostly under pKd 3.1 to 4; conditions: plain residues with an end cap or a label only (N-terminal biotin on a linker: ttds)

pKd | Binder
3.61 | QSARYRDTEL [TJP2, Q9UDY2]
4.58 | VLRLQSETSV [VANGL1, Q8TAA9]

target: DLG2_3, Q15700; assay: holdup assay; design: key: below the threshold = too weak to quantify, mostly under pKd 3.1 to 4; conditions: plain residues with an end cap or a label only (N-terminal biotin on a linker: ttds)

pKd | Binder
3.8 | QSARYRDTEL [TJP2, Q9UDY2]
4.71 | VLRLQSETSV [VANGL1, Q8TAA9]

target: T3, FRMPD1, Q5SYB0; assay: holdup assay; design: key: below the threshold = too weak to quantify, mostly under pKd 3.1 to 4; conditions: plain residues with an end cap or a label only (N-terminal biotin on a linker: ttds)

pKd | Binder
below the threshold | QSARYRDTEL [TJP2, Q9UDY2]
below the threshold | VLRLQSETSV [VANGL1, Q8TAA9]

target: GORASP1, Q9BQQ3; assay: holdup assay; design: key: below the threshold = too weak to quantify, mostly under pKd 3.1 to 4; conditions: plain residues with an end cap or a label only (N-terminal biotin on a linker: ttds)
Sequence (Q9BQQ3 1-208): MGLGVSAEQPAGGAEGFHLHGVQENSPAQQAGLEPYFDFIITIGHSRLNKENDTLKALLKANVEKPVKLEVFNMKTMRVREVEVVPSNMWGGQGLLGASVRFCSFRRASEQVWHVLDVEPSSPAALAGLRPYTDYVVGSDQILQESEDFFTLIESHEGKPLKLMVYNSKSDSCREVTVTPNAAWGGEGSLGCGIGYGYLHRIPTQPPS

pKd | Binder
below the threshold | QSARYRDTEL [TJP2, Q9UDY2]
below the threshold | VLRLQSETSV [VANGL1, Q8TAA9]

target: T4, GRIP1_7, Q9Y3R0; assay: holdup assay; design: key: below the threshold = too weak to quantify, mostly under pKd 3.1 to 4; conditions: plain residues with an end cap or a label only (N-terminal biotin on a linker: ttds)

pKd | Binder
3.82 | QSARYRDTEL [TJP2, Q9UDY2]
3.73 | VLRLQSETSV [VANGL1, Q8TAA9]

target: GRIP2_4, Q9C0E4; assay: holdup assay; design: key: below the threshold = too weak to quantify, mostly under pKd 3.1 to 4; conditions: plain residues with an end cap or a label only (N-terminal biotin on a linker: ttds)
Sequence (Q9C0E4 446-548): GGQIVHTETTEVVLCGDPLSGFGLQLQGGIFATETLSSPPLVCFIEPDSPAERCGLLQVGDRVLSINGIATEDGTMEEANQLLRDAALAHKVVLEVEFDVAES

pKd | Binder
below the threshold | QSARYRDTEL [TJP2, Q9UDY2]
below the threshold | VLRLQSETSV [VANGL1, Q8TAA9]

target: GRIP2_5, Q9C0E4; assay: holdup assay; design: key: below the threshold = too weak to quantify, mostly under pKd 3.1 to 4; conditions: plain residues with an end cap or a label only (N-terminal biotin on a linker: ttds)
Sequence (Q9C0E4 544-642): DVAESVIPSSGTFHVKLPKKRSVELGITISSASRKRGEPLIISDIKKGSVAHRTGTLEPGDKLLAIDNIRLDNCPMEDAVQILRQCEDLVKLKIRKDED

pKd | Binder
below the threshold | QSARYRDTEL [TJP2, Q9UDY2]
below the threshold | VLRLQSETSV [VANGL1, Q8TAA9]

target: T5, HTRA3, P83110; assay: holdup assay; design: key: below the threshold = too weak to quantify, mostly under pKd 3.1 to 4; conditions: plain residues with an end cap or a label only (N-terminal biotin on a linker: ttds)

pKd | Binder
3.54 | QSARYRDTEL [TJP2, Q9UDY2]
below the threshold | VLRLQSETSV [VANGL1, Q8TAA9]

target: IL16_4, Q14005; assay: holdup assay; design: key: below the threshold = too weak to quantify, mostly under pKd 3.1 to 4; conditions: plain residues with an end cap or a label only (N-terminal biotin on a linker: ttds)
Sequence (Q14005 1229-1329): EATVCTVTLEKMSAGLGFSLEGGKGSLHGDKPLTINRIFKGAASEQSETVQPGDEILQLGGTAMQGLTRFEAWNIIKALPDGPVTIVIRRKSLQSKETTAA

pKd | Binder
below the threshold | QSARYRDTEL [TJP2, Q9UDY2]
below the threshold | VLRLQSETSV [VANGL1, Q8TAA9]

target: LAP2, Q96RT1; assay: holdup assay; design: key: below the threshold = too weak to quantify, mostly under pKd 3.1 to 4; conditions: plain residues with an end cap or a label only (N-terminal biotin on a linker: ttds)
Sequence (Q96RT1 other isoform, or with tags, fused parts or gaps): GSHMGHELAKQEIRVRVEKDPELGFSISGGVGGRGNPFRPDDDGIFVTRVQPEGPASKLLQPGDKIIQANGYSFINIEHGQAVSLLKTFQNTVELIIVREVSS

pKd | Binder
below the threshold | QSARYRDTEL [TJP2, Q9UDY2]
4.07 | VLRLQSETSV [VANGL1, Q8TAA9]

target: T6, LIN7A, O14910; assay: holdup assay; design: key: below the threshold = too weak to quantify, mostly under pKd 3.1 to 4; conditions: plain residues with an end cap or a label only (N-terminal biotin on a linker: ttds)

pKd | Binder
below the threshold | QSARYRDTEL [TJP2, Q9UDY2]
below the threshold | VLRLQSETSV [VANGL1, Q8TAA9]

target: LNX1_2, Q8TBB1; assay: holdup assay; design: key: below the threshold = too weak to quantify, mostly under pKd 3.1 to 4; conditions: plain residues with an end cap or a label only (N-terminal biotin on a linker: ttds)
Sequence (Q8TBB1 371-470): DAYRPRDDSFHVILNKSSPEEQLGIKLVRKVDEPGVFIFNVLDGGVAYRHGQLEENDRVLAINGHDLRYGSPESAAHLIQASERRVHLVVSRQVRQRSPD

pKd | Binder
3.52 | QSARYRDTEL [TJP2, Q9UDY2]
below the threshold | VLRLQSETSV [VANGL1, Q8TAA9]

target: MAST1, Q9Y2H9; assay: holdup assay; design: key: below the threshold = too weak to quantify, mostly under pKd 3.1 to 4; conditions: plain residues with an end cap or a label only (N-terminal biotin on a linker: ttds)
Sequence (Q9Y2H9 962-1065): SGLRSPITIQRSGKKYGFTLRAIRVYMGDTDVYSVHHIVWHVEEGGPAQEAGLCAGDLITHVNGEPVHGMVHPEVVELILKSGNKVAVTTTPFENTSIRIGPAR

pKd | Binder
4.26 | QSARYRDTEL [TJP2, Q9UDY2]
below the threshold | VLRLQSETSV [VANGL1, Q8TAA9]

target: T7, MPDZ_5, O75970; assay: holdup assay; design: key: below the threshold = too weak to quantify, mostly under pKd 3.1 to 4; conditions: plain residues with an end cap or a label only (N-terminal biotin on a linker: ttds)

pKd | Binder
below the threshold | QSARYRDTEL [TJP2, Q9UDY2]
below the threshold | VLRLQSETSV [VANGL1, Q8TAA9]

target: T8, MPP2, Q14168; assay: holdup assay; design: key: below the threshold = too weak to quantify, mostly under pKd 3.1 to 4; conditions: plain residues with an end cap or a label only (N-terminal biotin on a linker: ttds)

pKd | Binder
below the threshold | QSARYRDTEL [TJP2, Q9UDY2]
below the threshold | VLRLQSETSV [VANGL1, Q8TAA9]

target: NHERF2_2, Q15599; assay: holdup assay; design: key: below the threshold = too weak to quantify, mostly under pKd 3.1 to 4; conditions: plain residues with an end cap or a label only (N-terminal biotin on a linker: ttds)
Sequence (Q15599 142-238): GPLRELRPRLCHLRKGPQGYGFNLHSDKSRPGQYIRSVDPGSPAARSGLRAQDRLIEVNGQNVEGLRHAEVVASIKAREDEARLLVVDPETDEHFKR

pKd | Binder
4.12 | QSARYRDTEL [TJP2, Q9UDY2]
3.75 | VLRLQSETSV [VANGL1, Q8TAA9]

target: T9, NHERF3_3, Q5T2W1; assay: holdup assay; design: key: below the threshold = too weak to quantify, mostly under pKd 3.1 to 4; conditions: plain residues with an end cap or a label only (N-terminal biotin on a linker: ttds)

pKd | Binder
below the threshold | QSARYRDTEL [TJP2, Q9UDY2]
below the threshold | VLRLQSETSV [VANGL1, Q8TAA9]

target: T10, PCLO, Q9Y6V0; assay: holdup assay; design: key: below the threshold = too weak to quantify, mostly under pKd 3.1 to 4; conditions: plain residues with an end cap or a label only (N-terminal biotin on a linker: ttds)

pKd | Binder
below the threshold | QSARYRDTEL [TJP2, Q9UDY2]
below the threshold | VLRLQSETSV [VANGL1, Q8TAA9]

target: T11, PDZD7_3, Q9H5P4; assay: holdup assay; design: key: below the threshold = too weak to quantify, mostly under pKd 3.1 to 4; conditions: plain residues with an end cap or a label only (N-terminal biotin on a linker: ttds)

pKd | Binder
3.69 | QSARYRDTEL [TJP2, Q9UDY2]
below the threshold | VLRLQSETSV [VANGL1, Q8TAA9]

target: SCRIB_1, Q14160; assay: holdup assay; design: key: below the threshold = too weak to quantify, mostly under pKd 3.1 to 4; conditions: plain residues with an end cap or a label only (N-terminal biotin on a linker: ttds)
Sequence (Q14160 718-814): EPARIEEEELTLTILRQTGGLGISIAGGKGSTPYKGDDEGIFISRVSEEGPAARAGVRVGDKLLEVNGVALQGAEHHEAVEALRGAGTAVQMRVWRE

pKd | Binder
4.46 | QSARYRDTEL [TJP2, Q9UDY2]
5.53 | VLRLQSETSV [VANGL1, Q8TAA9]

target: T12, TIAM2, Q8IVF5; assay: holdup assay; design: key: below the threshold = too weak to quantify, mostly under pKd 3.1 to 4; conditions: plain residues with an end cap or a label only (N-terminal biotin on a linker: ttds)

pKd | Binder
below the threshold | QSARYRDTEL [TJP2, Q9UDY2]
below the threshold | VLRLQSETSV [VANGL1, Q8TAA9]

target: T13, TJP3_3, O95049; assay: holdup assay; design: key: below the threshold = too weak to quantify, mostly under pKd 3.1 to 4; conditions: plain residues with an end cap or a label only (N-terminal biotin on a linker: ttds)

pKd | Binder
3.55 | QSARYRDTEL [TJP2, Q9UDY2]
below the threshold | VLRLQSETSV [VANGL1, Q8TAA9]
